According to US20040058445A1:

Target: MHC class I (framework determinant) on human tumor cells of patient 1C

Question: MAb w6/32 (antibody) was tested. Which inhibition of lysis of autologous 1C tumor cells in a 4-hour 51Cr release assay did it give?
Answer: 5 % lysis
